Source: patent US20200277374A1 (Alector, published 2020)
Where a chain is given by its changes, count along the chain named.

B1: anti-Siglec-7 antibody 4A1 (antibody, V domains shown)
VH: QVQLQQSGSELRSPGSSVKLSCKDFDSEVFPITYMNWVRQKPGHGFEWIGDILPSIGRTMYGEKFEDKATLDADTVSNTAYLELNSLTSEDSAIYYCARSEGYLLAYWGQGTLVTVSA
VL: DVVMTQTPLSLPVSLGDQASISCRSSQSLVHSTGNIYLHWYLQKPGQSPKLLIYKVSNRFZGVPDRFSGSGSGTDFTLKISRVEAEDLGVYFCSQNTHVPYTFGGGTKLEIK
notes: Variable domains assembled from FR and CDR entries
B2: anti-Siglec-7 antibody 7F12 (antibody, V domains shown)
VH: B1 VH
VL: B1 VL with V3L, I36T, Z61S, S72A
notes: as for B1
B3: 10B5 Fab (Fab, V domains shown)
VH: QVHLQQSGPELVKPGASVKISCKASGYAFTNCWMNWVRQRPGKGLDWIGRIFPGNGHTNYSGKFKDKATLTEDKSSSTAYMQLSSLTSEDSAVYFCARDYSDYYFDYWGQGTTLTVSS
VL: DVQMTQTTSSLSASLGDRVTISCRASQDINTYLNWYQQKPDGTVKLLIYYTSRLHSGVPSRFSGSGSGTDYSLTISNLEQEDIATYFCQQGNTLPWTFGGGTKLEIK

How the values were obtained:
[1] = target: T1, Histidine-tagged human Siglec-7 (NovoProtein) (human, UniProt Q9Y286 19-357, limits assumed); experiment: SPR (BiaCore T200, 25 C), antibody captured on anti-mouse IgG, Siglec-7-His 35 nM, single-concentration kinetics
T1 construct: Bought protein; also called purified Siglec-7-his tagged protein; not shown: histidine tag
Method: SPR data was collected at a rate of 10 Hz at 25′ C on a BiaCore T200 instrument. Data analysis was performed using BiaCore T200 Evaluation Software, version 2.0. HBS-EP+ (100 mM HEPES, 1.5 M NaCl, 30 mM EDTA, 0.5% v/v Surfactant P20, pH 7.4) was used as running buffer and for preparing reagents.
Mouse-derived antibodies (25 nM) against Siglec-7 were captured (60 s contact time, 30 μL/min flow rate, 0 s stabilization time) on a CM5 sensor chip (GE Healthcare) immobilized with anti-mouse IgG. Histidine-tagged human Siglec-7 (NovoProtein) was then flowed over the captured anti-Siglec-7 surface (120 s contact time, 30 μL/min flow rate, 300 s dissociation time). Concentration of antigen ranged from 5 nM to 100 nM, depending on information obtained from an initial screen. Duplicate single-concentration trials were performed and bracketed by a blank (0 nM antigen) sample. The chip surface was regenerated in between cycles using 10 mM glycine-HCl, pH1.7 (60 s contact time, 30 μL/min flow rate, 60 s stabilization time). The resulting SPR signal was obtained as the difference in response from measurements performed on a blank flow cell.
Affinity constants (KD) were calculated from the ratio kd/kₐ. For one antibody (clone 1E8), we validated the single-concentration analysis with a multiple-concentration approach (five concentrations of antigen used, plus one blank).

[2] = target: T2, human Siglec-7 expressed on human cells (primary monocytes, dendritic cells, macrophages, NK cells, … (human, UniProt Q9Y286 19-467)); experiment: cell-based or functional assay
[3] = target: T2, human Siglec-7 expressed on human cells …; experiment: FACS, human primary monocytes, 10 ug/ml mAb
Method: (§1) Initial characterization of Siglec-7 antibodies involved determining their ability to bind Siglec-7 expressed on human primary monocytes, human primary macrophages, human primary dendritic cells, human primary neutrophils, and human primary natural killer (NK) cells. Cells were harvested, plated at 10⁶/ml in a 96 well plate, and incubated in 100 ul PBS containing 2% FBS, 2 mM EDTA and 10 μg/ml Mab and Fc blocking reagent for 1 hour in ice. Cells were washed twice and incubated in 100 ul PBS containing 2% FBS, 2 mM EDTA and 5 ug/ml PE-conjugated secondary antibody for 30 minutes on ice. Cells were washed twice in cold PBS and analyze by flow cytometry on a BD FACS Canto. Data analysis and calculation of MFI values was performed with FlowJo (TreeStar) software version 10.0.7.
(§2) Percent positive binding and mean fluorescent intensity (MFI) values for cell types bound by Siglec-7 antibodies are listed in Table 4A. Binding is compared to an isotype control. The antibodies bind to human primary monocytes, human primary dendritic cells, and human primary macrophages. In Table 4A, “Buffer” refers to cells that were treated only with the PBS buffer described supra; “Secondary Ab” refers to cells that were treated only with the PE-conjugated secondary antibody; “mIgG1,” “mIgG2a,” and “mIgG2b” refer to isotype control antibodies; and “RDS7” refers to commerically available anti-Siglec-7 antibody Mab1138 (R&D Systems; Cat. No. MAB 1138).

[4] = target: T3, Siglec-7-Fc (plate immobilized) (human, UniProt Q9Y286 19-357, limits assumed); experiment: RBC solid adhesion assay, plate-coated Siglec-7-Fc, antibody 0.5 or 1.0 ug/ml; % of RBC binding without antibody
T3 construct: also called Siglec-7-Fc protein; immobilized Siglec-7; not shown: Fc part
How it was run: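 Plates coated overnight at RT with 5 μg/ml Siglec-7-Fc and blocked in PBS with BSA and 1 mM CaCl₂. Antibody (0.5 or 1.0 μg/ml) bound 1 h at RT, then RBCs (3.0×10⁶ cells/ml) added for 1 h at RT. Bound RBCs lysed and detected by peroxidase at 450 nm, expressed as % of binding without antibody.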

[5] = target: T2, human Siglec-7 expressed on human cells …; experiment: cell-based or functional assay; remark: listed apart in the source
[6] = target: T2, human Siglec-7 expressed on human cells …; experiment: FACS, human primary macrophages, 10 ug/ml mAb
Method: as §1, §2

[7] = target: T2, human Siglec-7 expressed on human cells …; experiment: FACS, human primary dendritic cells, 10 ug/ml mAb
Method: as §1, §2

[8] = target: T4, T107A (human, UniProt Q9Y286); experiment: flow cytometry on HEK-293T cells expressing the mutant, mock signal subtracted
T4 construct: clone of the siglec-7 mutation library; also called Siglec-7 T107A
Method: (§3) Shotgun mutagenesis epitope mapping of anti-siglec-7 antibodies was performed using an alanine-scanning library for the siglec-7 protein. […] Each of residues 19 to 353 was mutated, representing the siglec-7 extracellular domain, most to alanine, while alanine codons were mutated to serine. In total, 335 siglec-7 mutant expression constructs were generated, sequences confirmed, and arrayed into a 384-well plate, one mutant per well.
Cells were then incubated with MAbs diluted in 10% o normal goat serum (NGS) (Sigma-Aldrich, St. Louis, Mo.). Prior to library screening, primary MAb concentrations were determined using an independent immunofluorescence titration curve against cells expressing wild-type siglec-7 to ensure that signals were within the linear range of detection. MAbs were detected using 3.75 μg/ml AlexaFluor488-conjugated secondary antibody (Jackson immunoResearch Laboratories, Westgrove, Pa.) in 10% NGS. […] Mean cellular fluorescence was detected using the Intellicyt high throughput flow cytometer (HTFC, Intellicyt, Albuquerque, N. Mex.). MAb reactivities against each mutant clone were calculated relative to wild-type siglec-7 protein reactivity by subtracting the signal from mock-transfected controls, and normalizing to the signal from wild-type siglec-7-transfected controls.

[9] = target: T103A (human) (UniProt Q9Y286); experiment: flow cytometry on HEK-293T cells expressing the mutant; mean % of wild-type signal (range of duplicates)
[10] = target: Y50A (human) (UniProt Q9Y286); experiment: as above
[11] = target: M30A (human) (UniProt Q9Y286); experiment: as above
[12] = target: V44A (human) (UniProt Q9Y286); experiment: as above
[13] = target: F48A (human) (UniProt Q9Y286); experiment: as above
[14] = target: T4, T107A; experiment: as above
Method: as §3
(§4) Cells were then incubated with MAbs diluted in 10% o normal goat serum (NGS) (Sigma-Aldrich, St. Louis, Mo.). Prior to library screening, primary MAb concentrations were determined using an independent immunofluorescence titration curve against cells expressing wild-type siglec-7 to ensure that signals were within the linear range of detection. MAbs were detected using 3.75 μg/ml AlexaFluor488-conjugated secondary antibody (Jackson immunoResearch Laboratories, Westgrove, Pa.) in 10% NGS. Cells were washed twice with PBS−/− and resuspended in Cellstripper (Cellgro, Manassas, Va.) with 0.1% BSA (Sigma-Aldrich, St. Louis, Mo.). Mean cellular fluorescence was detected using the Intellicyt high throughput flow cytometer (HTFC, Intellicyt, Albuquerque, N. Mex.). MAb reactivities against each mutant clone were calculated relative to wild-type siglec-7 protein reactivity by subtracting the signal from mock-transfected controls, and normalizing to the signal from wild-type siglec-7-transfected controls.

[15] = target: T5, R45A (human, UniProt Q9Y286); experiment: as above
T5 construct: clone of the siglec-7 mutation library; also called Siglec-7 R45A
Method: as §3, §4

[16] = target: T6, I72A (human, UniProt Q9Y286); experiment: as above
T6 construct: clone of the siglec-7 mutation library; also called Siglec-7 I72A
Method: as §3, §4

[17] = target: T7, W74A (human, UniProt Q9Y286); experiment: as above
T7 construct: clone of the siglec-7 mutation library; also called Siglec-7 W74A
Method: as §3, §4

[18] = target: T8, N81A (human, UniProt Q9Y286); experiment: as above
T8 construct: clone of the siglec-7 mutation library; also called Siglec-7 N81A
Method: as §3, §4

[19] = target: T9, Q31A (human, UniProt Q9Y286); experiment: as above
T9 construct: clone of the siglec-7 mutation library; also called Siglec-7 Q31A
Method: as §3, §4

[20] = target: T10, S47A (human, UniProt Q9Y286); experiment: as above
T10 construct: clone of the siglec-7 mutation library; also called Siglec-7 S47A
Method: as §3, §4

[21] = target: T11, R124A (human, UniProt Q9Y286); experiment: as above
T11 construct: clone of the siglec-7 mutation library; also called Siglec-7 R124A
Method: as §3, §4

T2 sequence (Q9Y286 19-467): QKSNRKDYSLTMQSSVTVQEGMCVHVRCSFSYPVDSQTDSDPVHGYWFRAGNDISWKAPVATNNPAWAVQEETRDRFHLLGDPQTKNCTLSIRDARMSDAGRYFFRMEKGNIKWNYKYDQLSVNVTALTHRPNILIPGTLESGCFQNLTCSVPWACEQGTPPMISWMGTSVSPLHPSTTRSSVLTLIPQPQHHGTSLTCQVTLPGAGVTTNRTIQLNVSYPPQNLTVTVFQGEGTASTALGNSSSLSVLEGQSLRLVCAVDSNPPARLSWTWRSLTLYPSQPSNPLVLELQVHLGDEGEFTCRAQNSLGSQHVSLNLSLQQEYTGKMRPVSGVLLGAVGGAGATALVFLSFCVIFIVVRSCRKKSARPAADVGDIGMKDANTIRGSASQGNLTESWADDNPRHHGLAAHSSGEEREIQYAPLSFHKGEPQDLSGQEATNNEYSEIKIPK
T3 sequence (Q9Y286 19-357 limits assumed): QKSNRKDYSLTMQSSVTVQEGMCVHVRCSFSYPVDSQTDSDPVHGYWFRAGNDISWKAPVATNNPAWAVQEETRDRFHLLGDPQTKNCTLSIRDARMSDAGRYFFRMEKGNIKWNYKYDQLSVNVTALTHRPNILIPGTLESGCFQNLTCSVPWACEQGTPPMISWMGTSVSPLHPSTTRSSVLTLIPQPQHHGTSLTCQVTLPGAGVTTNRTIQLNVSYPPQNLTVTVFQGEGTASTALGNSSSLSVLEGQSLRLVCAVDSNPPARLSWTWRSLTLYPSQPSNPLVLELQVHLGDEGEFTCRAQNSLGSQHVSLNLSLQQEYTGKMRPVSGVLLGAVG
T1 sequence (Q9Y286 19-357 limits assumed): as above
T4 sequence (Q9Y286 19-467 T107A limits assumed): as the sequence (Q9Y286 19-467) above, with T89A counted along it
M30A (human), sequence (Q9Y286 19-467 M30A limits assumed): as the sequence (Q9Y286 19-467) above, with M12A counted along it
F48A (human), sequence (Q9Y286 19-467 F48A limits assumed): as the sequence (Q9Y286 19-467) above, with F30A counted along it
Y50A (human), sequence (Q9Y286 19-467 Y50A limits assumed): as the sequence (Q9Y286 19-467) above, with Y32A counted along it
V44A (human), sequence (Q9Y286 19-467 V44A limits assumed): as the sequence (Q9Y286 19-467) above, with V26A counted along it
T10 sequence (Q9Y286 19-467 S47A limits assumed): as the sequence (Q9Y286 19-467) above, with S29A counted along it
T6 sequence (Q9Y286 19-467 I72A limits assumed): as the sequence (Q9Y286 19-467) above, with I54A counted along it
T9 sequence (Q9Y286 19-467 Q31A limits assumed): as the sequence (Q9Y286 19-467) above, with Q13A counted along it
T5 sequence (Q9Y286 19-467 R45A limits assumed): as the sequence (Q9Y286 19-467) above, with R27A counted along it
T8 sequence (Q9Y286 19-467 N81A limits assumed): as the sequence (Q9Y286 19-467) above, with N63A counted along it
T7 sequence (Q9Y286 19-467 W74A limits assumed): as the sequence (Q9Y286 19-467) above, with W56A counted along it
T103A (human), sequence (Q9Y286 19-467 T103A limits assumed): as the sequence (Q9Y286 19-467) above, with T85A counted along it
T11 sequence (Q9Y286 19-467 R124A limits assumed): as the sequence (Q9Y286 19-467) above, with R106A counted along it

Binder	Kd [1]	Percent Siglec-7 Surface Expression, Macrophages [2]	Percent Siglec-7 Surface Expression, Microglia [2]	Percent Siglec-7 Surface Expression, NK cells [2]	% Positive [3]	MFI [3]	Percent RBC Binding to Siglec-7 [4]	Percent Siglec-7 Surface Expression, DCs [5]	Percent Siglec-7 Surface Expression, Monocytes [5]	Percent Siglec-7 Surface Expression, U937 cells [5]	% Positive [6]	MFI [6]	% Positive [7]	MFI [7]	further results
B1	0.3 nM	13.1%	26.3%	132%	99.4%	486	11.2%	99.6%	39.8%	89.5%	99.3%	14600	99.7%	5450	–
B2	0.4 nM	13.1%	28.1%	124%	99.3%	472	7.9%	96.9%	39%	86.3%	99.3%	12300	99.7%	5000	–
B3	–	–	–	–	–	–	–	–	–	–	–	–	–	–	binding result [8]: no binding; Binding Reactivity (% WT) [9]: 6.3 % WT; Binding Reactivity (% WT) [10]: 18.2 % WT; Binding Reactivity (% WT) [11]: 20.1 % WT; Binding Reactivity (% WT) [12]: 13.3 % WT; Binding Reactivity (% WT) [13]: 13.9 % WT; Binding Reactivity (% WT) [14]: 0.4 % WT; Binding Reactivity (% WT) [15]: 1.6 % WT; Binding Reactivity (% WT) [16]: 92.8 % WT; Binding Reactivity (% WT) [17]: 79.8 % WT; Binding Reactivity (% WT) [18]: 138 % WT; Binding Reactivity (% WT) [19]: 18.2 % WT; Binding Reactivity (% WT) [20]: 1.5 % WT; Binding Reactivity (% WT) [21]: 81.1 % WT
